T1: DGI-2 polypeptide (UniProt Q15004 1-111, limits assumed)
T1 construct: Soluble recombinant protein coated at 500 ng/well; vector tag of pIVEX2.3-MCS not described for this construct; also called KIAA0101
T1 sequence (looked up): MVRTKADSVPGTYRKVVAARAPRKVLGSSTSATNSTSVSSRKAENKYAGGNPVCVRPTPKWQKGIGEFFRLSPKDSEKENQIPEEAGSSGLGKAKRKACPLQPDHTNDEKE


Molecular target: T2, lactate dehydrogenase (LDH)
T2 construct: Coated at 500 ng/well as non-specific target; also called LDH polypeptide
Assay: phage ELISA
Experimental: (§1) For analysis of individual target binders, colonies were picked and phage prepared as described above using helper phage, M13KO7. Ninety-six-well microtiter plates were coated with 500 ng/well of specific target protein, 500 ng/well lactate dehydrogenase (LDH) irrelevant or non-specific target, 500 ng/well of positive control antibody raised against ETAG, and negative control of non-fat milk powder-PBS 2% at 4° C. overnight. Plates were then blocked with 350 microliters/well PBS containing 2% non-fat milk for 1 hr at room temperature. One hundred microliters per well of phage from isolated clones were added and plates were incubated at room temperature for 2 hr after centrifuging samples for 20 minutes at 3500 rpm at 4° C. The phage solution was then removed, and the wells were washed three times with PBS at room temperature. Antibody raised against M13 conjugated to horseradish peroxidase (Pharmacia) was diluted 1:3000 in PBS-Tween and added to each well (100 µl/well). Incubation was for 1 hr at room temperature, followed by washing with PBS-(0.5%) Tween 3 times as described. Color was developed by addition of ABTS solution (100 µl/well; Boehringer, Indianapolis, Ind.). Plates were analyzed at 405 nm. A clone was considered "positive" if the $A405$ of the well was $\geq$2-fold over background.

| Binder | LDH (OD) |
| --- | --- |
| GRWDGWEVCGIWGADDCASGAAAGAPVPYPDPLEPRP [DGI-2-20R-4-H1] | 1.2 |
| VWRDWVNGTVGLRNREKPGVAAAGAPVPYPDPLEPRP [DGI-2-20R-3-A5] | 1.1 |
| LLLPVRWRDAQPRSLLMEWIAAAGAPVPYPDPLEPRP [DGI-2-20F-PP-F8] | 1.1 |
| RDHRYVGWGRATFRHDQSVWAAAGAPVPYPDPLEPRP [DGI-2-20F-PP-H1] | 1.2 |
| FGSTAYADMLSQFRKFAMNISAAAGAPVPYPDPLEPRP [DGI-2-20F-PP-E1] | 1 |
| VWAAWVEGSLLSPRQEPVRDAAAGAPVPYPDPLEPRP [DGI-2-20R-4-G4] | 1 |
| RTLFINGGCCGKGSGGGRPLAAAGAPVPYPDPLEPRP [DGI-2-20F-PP-G1] | 1 |
| KVWGCGARRGWERLGHLNQVAAAGAPVPYPDPLEPRP [DGI-2-20F-PP-B10] | 0.8 |
| FGRDGDGIQRRQGGFSWVGDRAAAGAPVPYPDPLEPRP [DGI-2-20F-PP-E2] | 0.7 |
| MGADTCMGGKMPFDQMFGAVAAAGAPVPYPDPLEPRP [DGI-2-20F-PP-E10] | 1.2 |
| DGRGWGAMWMRWAEGLGADIAAAGAPVPYPDPLEPRP [DGI-2-20R-4-G114] | 1.2 |
| LWRRWSEGQLLGDGELRGDGAAAGAPVPYPDPLEPRP [DGI-2-20R-3-B52] | 1 |
| RGVNSDMPRLYICRADGQGQAAAGAPVPYPDPLEPRP [DGI-2-20F-PP-H6] | 0.8 |
| GAIRLSGAAWTASRTGGRASAAAGAPVPYPDPLEPRP [DGI-2-20F-PP-E7] | 0.9 |
| RRGVCEIFTGWCVGQTNERPAAAGAPVPYPDPLEPRP [DGI-2-20R-4-H626] | 1.1 |
| SRGMAEAQFSAWPVLAVFPLAAAGAPVPYPDPLEPRP [DGI-2-20F-PP-H8] | 0.9 |
| WWREWVDGSLRGGGGTVLKDAAAGAPVPYPDPLEPRP [DGI-2-20R-3-A122] | 1 |
| GWSDFVATGSWSGQVSAALNAAAGAPVPYPDPLEPRP [DGI-2-20R-4-F120] | 1.1 |
| GHGAGDWAAELFVCPVAFLTGFAWRAAAGAPVPYPDPLEPRP [DGI-2-20R-4-H2] | 1.1 |
| SRELGKWGRLWQDWSSGNFSAAAGAPVPYPDPLEPRP [DGI-2-20R-3-C11] | 1 |
| LSLEGGWMWDTKGGDGGSAQAAAGAPVPYPDPLEPRP [DGI-2-20R-4-F93] | 1.1 |
| RISVGQCGTSRCGGGRRGGGAAAGAPVPYPDPLEPRP [DGI-2-20F-PP-D1] | 1.1 |
| FRVALLSVSAGPCEGSGNTAAAGAPVPYPDPLEPRP [DGI-2-20F-PP-H7] | 0.8 |
| CGGWGAMWEAWVQGLNGAGCAAAGAPVPYPDPLEPRP [DGI-2-20R-3-D4] | 1.1 |

Molecular target: T3, antibody raised against ETAG
T3 construct: Coated at 500 ng/well; also called E-tag antibody
Assay: phage ELISA
Experimental: as §1

| Binder | ETAG (OD) |
| --- | --- |
| GRWDGWEVCGIWGADDCASGAAAGAPVPYPDPLEPRP [DGI-2-20R-4-H1] | 14 |
| VWRDWVNGTVGLRNREKPGVAAAGAPVPYPDPLEPRP [DGI-2-20R-3-A5] | 14.9 |
| LLLPVRWRDAQPRSLLMEWIAAAGAPVPYPDPLEPRP [DGI-2-20F-PP-F8] | 7.6 |
| RDHRYVGWGRATFRHDQSVWAAAGAPVPYPDPLEPRP [DGI-2-20F-PP-H1] | 1.4 |
| FGSTAYADMLSQFRKFAMNISAAAGAPVPYPDPLEPRP [DGI-2-20F-PP-E1] | 33.4 |
| VWAAWVEGSLLSPRQEPVRDAAAGAPVPYPDPLEPRP [DGI-2-20R-4-G4] | 13.6 |
| RTLFINGGCCGKGSGGGRPLAAAGAPVPYPDPLEPRP [DGI-2-20F-PP-G1] | 21.8 |
| KVWGCGARRGWERLGHLNQVAAAGAPVPYPDPLEPRP [DGI-2-20F-PP-B10] | 27.1 |
| FGRDGDGIQRRQGGFSWVGDRAAAGAPVPYPDPLEPRP [DGI-2-20F-PP-E2] | 11.6 |
| MGADTCMGGKMPFDQMFGAVAAAGAPVPYPDPLEPRP [DGI-2-20F-PP-E10] | 44.6 |
| DGRGWGAMWMRWAEGLGADIAAAGAPVPYPDPLEPRP [DGI-2-20R-4-G114] | 16.5 |
| LWRRWSEGQLLGDGELRGDGAAAGAPVPYPDPLEPRP [DGI-2-20R-3-B52] | 15.8 |
| RGVNSDMPRLYICRADGQGQAAAGAPVPYPDPLEPRP [DGI-2-20F-PP-H6] | 18.9 |
| GAIRLSGAAWTASRTGGRASAAAGAPVPYPDPLEPRP [DGI-2-20F-PP-E7] | 21.5 |
| RRGVCEIFTGWCVGQTNERPAAAGAPVPYPDPLEPRP [DGI-2-20R-4-H626] | 13.5 |
| SRGMAEAQFSAWPVLAVFPLAAAGAPVPYPDPLEPRP [DGI-2-20F-PP-H8] | 32.4 |
| WWREWVDGSLRGGGGTVLKDAAAGAPVPYPDPLEPRP [DGI-2-20R-3-A122] | 15.1 |
| GWSDFVATGSWSGQVSAALNAAAGAPVPYPDPLEPRP [DGI-2-20R-4-F120] | 16.5 |
| GHGAGDWAAELFVCPVAFLTGFAWRAAAGAPVPYPDPLEPRP [DGI-2-20R-4-H2] | 12.9 |
| SRELGKWGRLWQDWSSGNFSAAAGAPVPYPDPLEPRP [DGI-2-20R-3-C11] | 18.9 |
| LSLEGGWMWDTKGGDGGSAQAAAGAPVPYPDPLEPRP [DGI-2-20R-4-F93] | 19.5 |
| RISVGQCGTSRCGGGRRGGGAAAGAPVPYPDPLEPRP [DGI-2-20F-PP-D1] | 3 |
| FRVALLSVSAGPCEGSGNTAAAGAPVPYPDPLEPRP [DGI-2-20F-PP-H7] | 3.7 |
| CGGWGAMWEAWVQGLNGAGCAAAGAPVPYPDPLEPRP [DGI-2-20R-3-D4] | 18.9 |

Molecular target: T1, DGI-2 polypeptide
Assay: phage ELISA
Experimental: as §1

| Binder | DGI-2 (OD) | DGI-2/LDH [ratio] |
| --- | --- | --- |
| GRWDGWEVCGIWGADDCASGAAAGAPVPYPDPLEPRP [DGI-2-20R-4-H1] | 9.3 | 7.8 |
| VWRDWVNGTVGLRNREKPGVAAAGAPVPYPDPLEPRP [DGI-2-20R-3-A5] | 10.9 | 9.8 |
| LLLPVRWRDAQPRSLLMEWIAAAGAPVPYPDPLEPRP [DGI-2-20F-PP-F8] | 2 | 1.9 |
| RDHRYVGWGRATFRHDQSVWAAAGAPVPYPDPLEPRP [DGI-2-20F-PP-H1] | 1.7 | 1.4 |
| FGSTAYADMLSQFRKFAMNISAAAGAPVPYPDPLEPRP [DGI-2-20F-PP-E1] | 1.8 | 1.9 |
| VWAAWVEGSLLSPRQEPVRDAAAGAPVPYPDPLEPRP [DGI-2-20R-4-G4] | 10.2 | 9.8 |
| RTLFINGGCCGKGSGGGRPLAAAGAPVPYPDPLEPRP [DGI-2-20F-PP-G1] | 1.4 | 1.4 |
| KVWGCGARRGWERLGHLNQVAAAGAPVPYPDPLEPRP [DGI-2-20F-PP-B10] | 1.9 | 2.4 |
| FGRDGDGIQRRQGGFSWVGDRAAAGAPVPYPDPLEPRP [DGI-2-20F-PP-E2] | 1.7 | 2.4 |
| MGADTCMGGKMPFDQMFGAVAAAGAPVPYPDPLEPRP [DGI-2-20F-PP-E10] | 2 | 1.7 |
| DGRGWGAMWMRWAEGLGADIAAAGAPVPYPDPLEPRP [DGI-2-20R-4-G114] | 12.9 | 11 |
| LWRRWSEGQLLGDGELRGDGAAAGAPVPYPDPLEPRP [DGI-2-20R-3-B52] | 8.7 | 8.4 |
| RGVNSDMPRLYICRADGQGQAAAGAPVPYPDPLEPRP [DGI-2-20F-PP-H6] | 1.6 | 1.9 |
| GAIRLSGAAWTASRTGGRASAAAGAPVPYPDPLEPRP [DGI-2-20F-PP-E7] | 1.6 | 1.8 |
| RRGVCEIFTGWCVGQTNERPAAAGAPVPYPDPLEPRP [DGI-2-20R-4-H626] | 9.6 | 8.8 |
| SRGMAEAQFSAWPVLAVFPLAAAGAPVPYPDPLEPRP [DGI-2-20F-PP-H8] | 1.6 | 1.9 |
| WWREWVDGSLRGGGGTVLKDAAAGAPVPYPDPLEPRP [DGI-2-20R-3-A122] | 9.6 | 9.4 |
| GWSDFVATGSWSGQVSAALNAAAGAPVPYPDPLEPRP [DGI-2-20R-4-F120] | 13.6 | 12.2 |
| GHGAGDWAAELFVCPVAFLTGFAWRAAAGAPVPYPDPLEPRP [DGI-2-20R-4-H2] | 9.9 | 9.2 |
| SRELGKWGRLWQDWSSGNFSAAAGAPVPYPDPLEPRP [DGI-2-20R-3-C11] | 8.6 | 8.3 |
| LSLEGGWMWDTKGGDGGSAQAAAGAPVPYPDPLEPRP [DGI-2-20R-4-F93] | 9 | 8.4 |
| RISVGQCGTSRCGGGRRGGGAAAGAPVPYPDPLEPRP [DGI-2-20F-PP-D1] | 2 | 1.9 |
| FRVALLSVSAGPCEGSGNTAAAGAPVPYPDPLEPRP [DGI-2-20F-PP-H7] | 1.8 | 2.1 |
| CGGWGAMWEAWVQGLNGAGCAAAGAPVPYPDPLEPRP [DGI-2-20R-3-D4] | 8.7 | 8.1 |
